The results in this text go back to patent US20100273186A1, “SPLIT MUTANT HYDROLASE FUSION REPORTER AND USES THEREOF” (Promega Corporation, priority 2007, published 2010).

Residue numbers refer to the chain shown, from its start. Numbers in names are those of the source.

The nature of data set [1]: Binding of substrate to DhaA mutants. An excerpt: (§1) Carboxytetramethylrhodamine-C10H21NO2—Cl, carboxyfluorescein-C10H21NO2—Cl, and 5-carboxy-X-rhodamine-C10H21NO2—Cl bound to DhaA.H272F but not to DhaA.WT. Biotin-C10H21NO2—Cl bound to DhaA.H272F but not to DhaA.WT.
DhaA.H272 mutants, i.e. H272F/G/A/Q, bound to carboxytetramethylrhodamine-C10H21NO2—Cl.
A control mutant, DhaA.D106Q, single mutants DhaA.D106C, DhaA.D106Y, and DhaA.D106E, as well as double mutants DhaA.D106C:H272F, DhaA.D106E:H272F, DhaA.D106Q:H272F, and DhaA.D106Y:H272F were analyzed for binding to carboxytetramethylrhodamine-C10H21NO2—Cl. Carboxytetramethylrhodamine-C10H21NO2—Cl bound to DhaA.D106C, DhaA.D106C:H272F, DhaA.D106E, and DhaA.H272F. Thus, the bond formed between carboxytetramethylrhodamine-C10H21NO2—Cl and cysteine or glutamate at residue 106 in a mutant DhaA is stable relative to the bond formed between carboxytetramethylrhodamine-C10H21NO2—Cl and DhaA.WT. Other substitutions at position 106 alone or in combination with substitutions at other residues in DhaA may yield similar results. Further, certain substitutions at position 106 alone or in combination with substitutions at other residues in DhaA may result in a mutant DhaA that forms a bond with only certain substrates.

Data set [2] can be described thus: Binding of substrate to DhaA mutants.
From the text: as §1
The source holds these as a separate data set.

Data set [3] can be described thus: Fluorescence polarization (FP) labeling assay. It counts as binding. To be noted: relative to DhaA.H272F H11YL. An excerpt:
Fluorescence polarization (FP) is ideal for the study of small fluorescent ligands binding to proteins. It is unique among methods used to analyze molecular binding because it gives direct nearly instantaneous measure of a substrate bound/free ratio. Therefore, an FP assay was developed as an alternative approach to fluorimage gel analysis of the purified DhaA mutants. […] To place this rate in perspective, approximately 42 and 420-fold more A7 and parental, i.e., DhaA.H272F, protein, respectively, was required in the reaction to obtain measurable rates. Under the labeling conditions used, it is evident that the H11YL mutant was also considerably faster than A7 and parental, DhaA.H272F proteins with the fluorescein-based substrate. However, it appears that labeling of H11YL with carboxyfluorescein-C10H21NO2—Cl is markedly slower than labeling with the corresponding carboxytetramethylrhodamine-C10H21NO2—Cl substrate. Four-fold more H11YL protein was used in the carboxyfluorescein-C10H21NO2—Cl reaction (150 nM) versus the carboxytetramethylrhodamine-C10H21NO2—Cl reaction (35 nM), yet the rate observed appeared to be qualitatively slower than the observed carboxytetramethylrhodamine-C10H21NO2—Cl rate.
Based on the sensitivity and truly homogenous nature of this assay, FP was used to characterize the labeling properties of the purified DhaA mutants with the fluorescently coupled substrates. The data from these studies was then used to calculate a second order rate constant for each DhaA mutant-substrate pair. […] However, in each case labeling was slower with the carboxyfluorescein-C10H21NO2—Cl substrate. All of the first generation DhaA mutants characterized by FP had rates that ranged from 7 to 3555-fold faster than the corresponding parental protein. By far, the biggest impact on labeling rate by a single amino acid substitution occurred with the three replacements at the 273 position (Y273L, Y273M, and Y273C) in the DhaA.H272F background. Nevertheless, in each of the first generation DhaA.H272F mutants tested, labeling with the carboxyfluorescein-C10H21NO2—Cl substrate always occurred at a slower rate (1.6 to 46-fold). […] The H11YL rate constant of 2.2×10^6 M^−1 sec^−1 was nearly identical to the rate constant calculated for a carboxytetramethylrhodamine-coupled biotin/streptavidin interaction. This value is consistent with an on-rate of 5×10^6 M^−1 sec^1 determined for a biotin-streptavidin interaction using surface plasmon resonance analysis (Qureshi et al., 2001). Several of the second generation mutants also had improved rates with the carboxyfluorescein-C10H21NO2—Cl substrate, however, as noted previously, these rates were always slower than with the carboxytetramethylrhodamine-C10H21NO2—Cl substrate. […]

A short description of data set [4]: MagneGST-based assay. The class given is binding. The text has this: An automated MagneGST™-based assay was used to screen the DhaA mutant protein libraries. […] For clones with at least 50% higher activity than the DhaA.H272F parent, the overall hit rate of the libraries examined varied from between 1-3%. Similar screening results were obtained for the DhaA.D106C libraries (data not shown). The hits identified by the initial primary screen were located in the master plates, consolidated, re-grown and reanalyzed using the MagneGST™ assay. Only those DhaA mutants with at least a 2-fold higher signal than the parental control upon reanalysis were chosen for sequence analysis.
The results of these analyses were consistent with protein labeling studies using SDS-PAGE fluorimage gel analysis. In an effort to determine if combinations of the best mutations identified in the DhaA.H272F background were additive, the three mutations at residue 273 were recombined with the DhaA.H272F A7 and DhaA.H272F H11 mutations. In order to distinguish these recombined protein mutants from the mutants identified in round one of screening (first generation), they are referred to as “second generation” DhaA mutants.

B1: DhaA.H272F: DhaA mutant, catalytic triad His272 replaced with Phe (protein, UniProt P0A3G2 1-293, looked up, variant H272F)
Haloalkane dehalogenase: MSEIGTGFPFDPHYVEVLGERMHYVDVGPRDGTPVLFLHGNPTSSYLWRNIIPHVAPSHRCIAPDLIGMGKSDKPDLDYFFDDHVRYLDAFIEALGLEEVVLVIHDWGSALGFHWAKRNPERVKGIACMEFIRPIPTWDEWPEFARETFQAFRTADVGRELIIDQNAFIEGALPKCVVRPLTEVEMDHYREPFLKPVDREPLWRFPNELPIAGEPANIVALVEAYMNWLHQSPVPKLLFWGTPGVLIPPAEAARLAESLPNCKTVDIGPGLFYLQEDNPDLIGSEIARWLPAL
For B1, in data set [1], the “binding to carboxytetramethylrhodamine-C10H21NO2—Cl” value is “bound”. In data set [2], the “binding to 5-carboxy-X-rhodamine-C10H21NO2—Cl” value is listed as “bound”, the “binding to Biotin-C10H21NO2—Cl” value was “bound” and the “binding to carboxyfluorescein-C10H21NO2—Cl” value is “bound”. Also, in data set [3], the “fold more protein required in the reaction to obtain measurable rates” value is reported as around 420 fold.

B2: DhaA.D106C: DhaA mutant, Asp106 replaced with Cys (protein, UniProt P0A3G2 1-293, looked up, variant D106C)
Haloalkane dehalogenase: B1 Haloalkane dehalogenase with D106C, F272H
As for B2, the “binding to carboxytetramethylrhodamine-C10H21NO2—Cl” value in data set [1] is reported as “bound”.

B3: DhaA.D106C:H272F: DhaA double mutant D106C and H272F (protein, UniProt P0A3G2 1-293, looked up, variant D106C H272F)
Haloalkane dehalogenase: B1 Haloalkane dehalogenase with D106C
Take B3: the “binding to carboxytetramethylrhodamine-C10H21NO2—Cl” value in data set [1] is recorded as “bound”.

B4: DhaA.D106E: DhaA single mutant D106E (protein, UniProt P0A3G2 1-293, looked up, variant D106E)
Haloalkane dehalogenase: B1 Haloalkane dehalogenase with D106E, F272H
Turning to B4, in data set [1], the “binding to carboxytetramethylrhodamine-C10H21NO2—Cl” value is on record as “bound”.

B5: YC: DhaA.H272F based mutant with Y273C (protein, UniProt P0A3G2 1-293, looked up, variant H272F Y273C)
Haloalkane dehalogenase: B1 Haloalkane dehalogenase with Y273C
As for B5, the “improvement over the parental clones” value in data set [4] is given as “significantly improved”.

B6: YM: DhaA.H272F based mutant with Y273M (protein, UniProt P0A3G2 1-293, looked up, variant H272F Y273M)
Haloalkane dehalogenase: B1 Haloalkane dehalogenase with Y273M
For B6, the “improvement over the parental clones” value in data set [4] is on record as “significantly improved”.

B7: YL: DhaA.H272F based mutant with Y273L (protein, UniProt P0A3G2 1-293, looked up, variant H272F Y273L)
Haloalkane dehalogenase: B1 Haloalkane dehalogenase with Y273L
Turning to B7, the “improvement over the parental clones” value in data set [4] is “significantly improved”.

B8: DhaA.WT: wild type Rhodococcus rhodochrous dehalogenase (DhaA), SEQ ID NO:1 (protein, listed as Rhodococcus rhodochrous)
chain: B1 Haloalkane dehalogenase with F272H
In the case of B8, in data set [1], the “binding to carboxytetramethylrhodamine-C10H21NO2—Cl” value is on record as “not”. Further, in data set [2], the “binding to 5-carboxy-X-rhodamine-C10H21NO2—Cl” value is listed as “not”, the “binding to Biotin-C10H21NO2—Cl” value is reported as “not” and the “binding to carboxyfluorescein-C10H21NO2—Cl” value was “not”.
